pKd: −log10 of the molar value.
Target: EphB4 receptor (UniProt P54760)
Assay: SPR

UniProt P54760, sequence (P54760 16-987): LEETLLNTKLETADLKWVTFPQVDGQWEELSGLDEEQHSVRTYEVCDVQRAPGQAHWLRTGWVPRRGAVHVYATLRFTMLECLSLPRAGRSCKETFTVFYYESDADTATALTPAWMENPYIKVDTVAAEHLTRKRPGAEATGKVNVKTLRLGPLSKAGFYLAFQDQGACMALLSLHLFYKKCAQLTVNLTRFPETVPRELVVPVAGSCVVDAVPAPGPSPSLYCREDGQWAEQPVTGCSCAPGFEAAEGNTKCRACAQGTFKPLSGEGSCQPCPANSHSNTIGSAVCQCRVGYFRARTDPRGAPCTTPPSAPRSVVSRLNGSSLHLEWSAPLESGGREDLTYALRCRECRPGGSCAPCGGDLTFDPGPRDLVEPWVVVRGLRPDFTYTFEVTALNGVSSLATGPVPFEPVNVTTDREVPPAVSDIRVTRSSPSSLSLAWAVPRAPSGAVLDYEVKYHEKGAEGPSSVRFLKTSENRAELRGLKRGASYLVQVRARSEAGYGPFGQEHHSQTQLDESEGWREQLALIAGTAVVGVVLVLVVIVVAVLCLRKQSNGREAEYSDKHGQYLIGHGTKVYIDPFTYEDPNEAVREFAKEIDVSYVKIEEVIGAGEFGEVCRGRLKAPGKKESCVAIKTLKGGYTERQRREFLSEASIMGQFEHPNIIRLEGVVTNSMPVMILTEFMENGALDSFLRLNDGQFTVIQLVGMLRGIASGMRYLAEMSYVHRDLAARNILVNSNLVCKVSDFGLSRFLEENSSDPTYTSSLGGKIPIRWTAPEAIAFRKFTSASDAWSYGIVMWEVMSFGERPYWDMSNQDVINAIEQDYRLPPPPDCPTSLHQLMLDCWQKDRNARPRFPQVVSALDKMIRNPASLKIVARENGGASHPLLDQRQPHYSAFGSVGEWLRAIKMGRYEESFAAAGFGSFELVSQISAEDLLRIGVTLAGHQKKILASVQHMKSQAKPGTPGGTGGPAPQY

- pKd: 8.36
Substance: cyclic peptide c(TNYL-RAW)
